# Data published in paper PMC10605006, “RNA structure and multiple weak interactions balance the interplay between RNA binding and phase separation of SARS-CoV-2 nucleocapsid”.
# Key:
# [1] = target: NTD (SARS-CoV-2, UniProt P0DTC9 47-174); experiment: fluorescence anisotropy; 1:1 fit; Anisotropy: 50 mM Na phosphate pH 6.5, 150 mM NaCl, 1 mM NaN3, 50 nM RNA; EMSA: 20 mM Tris pH 7.5, 150 mM NaCl, 1 mM DTT, room temp, 25 uM RNA; NTD NMR: 20 mM Na phosphate pH 6.5, 20 mM NaCl, 25 C; CTD NMR: 20 mM Na phosphate pH 6, 200 mM NaCl; details: protein: recombinant; tags: none (tag removed by bdSENP1); label: 5',6-carboxyfluorescein (6-FAM) for anisotropy; unlabeled for NMR; single strand, no self-pairing
# [2] = target: FL-N (nucleocapsid, full length) (SARS-CoV-2, UniProt P0DTC9 1-419); experiment: fluorescence anisotropy; fit with locked stoichiometry n=4 RNA:FL-N; authors call it an estimate; Anisotropy: 50 mM Na phosphate pH 6.5, 150 mM NaCl, 1 mM NaN3, 50 nM RNA; EMSA: 20 mM Tris pH 7.5, 150 mM NaCl, 1 mM DTT, room temp, 25 uM RNA; NTD NMR: 20 mM Na phosphate pH 6.5, 20 mM NaCl, 25 C; CTD NMR: 20 mM Na phosphate pH 6, 200 mM NaCl; details: protein: recombinant; tags: His-tag (TALON, imidazole eluted); chain copies: 2; label: 5',6-carboxyfluorescein (6-FAM) for anisotropy; unlabeled for NMR; single strand, no self-pairing
binder,measurement,setting,value
GGCACAUGGACGUC (ssRNA) [ss-14mer],Kd,[1],22 µM
same,Kd,[2],~0.08 µM
